Publication PMC12277127

What was measured:
Conditions in all cases: protein: recombinant; tags: none left (N-terminal His removed by TEV); chain copies: 3; single strand
SPRTN core (E112Q) [1] = biological target: T1, SPRTN core (E112Q) (human, UniProt Q9H040 26-240, E112Q); experiment: ITC; with equimolar M1-Ub4 (linear tetra-ubiquitin; ternary complex); N=0.29 ± 0.01; ITC: 50 mM HEPES pH 7.4, 50 mM NaCl, 0.5 mM TCEP-HCl, 25 °C, one-site model
T1 sequence: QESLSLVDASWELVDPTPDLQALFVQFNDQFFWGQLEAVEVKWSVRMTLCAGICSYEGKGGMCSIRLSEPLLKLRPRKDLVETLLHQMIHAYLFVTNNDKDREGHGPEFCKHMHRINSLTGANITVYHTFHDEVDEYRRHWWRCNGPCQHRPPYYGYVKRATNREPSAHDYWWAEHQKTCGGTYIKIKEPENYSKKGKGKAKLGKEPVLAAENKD

SPRTN core (E112Q) [2] = biological target: T1, SPRTN core (E112Q); experiment: ITC; with equimolar monoUb; N=0.36 ± 0.02; ITC: 50 mM HEPES pH 7.4, 50 mM NaCl, 0.5 mM TCEP-HCl, 25 °C, one-site model
SPRTN core (E112Q) [3] = biological target: T1, SPRTN core (E112Q); experiment: ITC; no ubiquitin; N=0.36 ± 0.05; ITC: 50 mM HEPES pH 7.4, 50 mM NaCl, 0.5 mM TCEP-HCl, 25 °C, one-site model

B1: ssDNA (20 nt), Turner-20bp-F (ssDNA)
DNA: ACGCCTGAAGAGTCTGGTGA
B1 showed a Kd (SPRTN core (E112Q) [1]) of 0.44 ± 0.03 µM, a Kd (SPRTN core (E112Q) [2]) of 5.15 ± 1.36 µM and a Kd (SPRTN core (E112Q) [3]) of 4.33 ± 0.98 µM.
